In patent US20240101707A1, “A METHOD OF PREVENTING, ALLEVIATING OR TREATING A TUMOR” (JIANGSU ALPHAMAB BIOPHARMACEUTICALS CO., LTD., priority 2021, published 2024):

Molecular target: T1, Human PD-L1 (WT) (human, UniProt Q9NZQ7 19-127, limits assumed)
T1 construct: also called human PD-L1 N-terminal IgV domain
Assay: affinity measurement, method not stated

T1 sequence (Q9NZQ7 19-127 limits assumed): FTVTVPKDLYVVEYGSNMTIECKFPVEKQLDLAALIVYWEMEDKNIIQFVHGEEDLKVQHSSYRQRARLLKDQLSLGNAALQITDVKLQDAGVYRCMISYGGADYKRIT

B1: PD-L1 ISVD-9 (VHH)
VHH: QVQLVESGGGLVQPGGSLRLSCAASGKMSSRRCMAWFRQAPGKERERVAKLLTTSGSTYLADSVKGRFTISRDNSKNTVYLQMNSLRAEDTAVYYCAADSFEDPTCTLVTSSGAFQYWGQGTLVTVSS
notes: also called ISVD specific for PD-L1
Kd: 5.92 nM
